B1: TCR R26P2A6 (TCR, V domains shown)
V domain 1: QKEVEQDPGPLSVPEGAIVSLNCTYSNSAFQYFMWYRQYSRKGPELLMYTYSSGNKEDGRFTAQVDKSSKYISLFIRDSQPSDSATYLCAMSDVSGGYNKLIFGAGTRLAVHP
V domain 2: EAQVTQNPRYLITVTGKKLTVTCSQNMNHEYMSWYRQDPGLGLRQIYYSMNVEVTDKGDVPEGYKVSRKEKRNFPLILESPSPNQTSLYFCASTTPDGTDEQFFGPGTRLTVLE
B2: TCR R37P1H1 (TCR, V domains shown)
V domain 1: AQTVTQSQPEMSVQEAETVTLSCTYDTSESNYYLFWYKQPPSRQMILVIRQEAYKQQNATENRFSVNFQKAAKSFSLKISDSQLGDTAMYFCAFGYSGGGADGLTFGKGTHLIIQP
V domain 2: DAGVTQSPTHLIKTRGQQVTLRCSPKSGHDTVSWYQQALGQGPQFIFQYYEEEERQRGNFPDRFSGHQFPNYSSELNVNALLLGDSALYLCASSNEGQGWEAEAFFGQGTRLTVVE
B3: TCR R42P3A9 (TCR, V domains shown)
V domain 1: GIQVEQSPPDLILQEGANSTLRCNFSDSVNNLQWFHQNPWGQLINLFYIPSGTKQNGRLSATTVATERYSLLYISSSQTTDSGVYFCAVHNFNKFYFGSGTKLNVKP
V domain 2: AAGVIQSPRHLIKEKRETATLKCYPIPRHDTVYWYQQGPGQDPQFLISFYEKMQSDKGSIPDRFSAQQFSDYHSELNMSSLELGDSALYFCASSLLGQGYNEQFFGPGTRLTVLE
B4: TCR R26P1A9 (TCR, V domains shown)
V domain 1: SQQGEEDPQALSIQEGENATMNCSYKTSINNLQWYRQNSGRGLVHLILIRSNEREKHSGRLRVTLDTSKKSSSLLITASRAADTASYFCLIGASGSRLTFGEGTQLTVNP
V domain 2: DAGVIQSPRHEVTEMGQEVTLRCKPISGHDYLFWYRQTMMRGLELLIYFNNNVPIDDSGMPEDRFSAKMPNASFSTLKIQPSEPRDSAVYFCASSYFGWNEKLFFGSGTQLSVLE
B5: TCR R59P2E7 (TCR, V domains shown)
V domain 1: KQEVTQIPAALSVPEGENLVLNCSFTDSAIYNLQWFRQDPGKGLTSLLLIQSSQREQTSGRLNASLDKSSGRSTLYIAASQPGDSATYLCAVNSDYKLSFGAGTTVTVRA
V domain 2: AAGVIQSPRHLIKEKRETATLKCYPIPRHDTVYWYQQGPGQDPQFLISFYEKMQSDKGSIPDRFSAQQFSDYHSELNMSSLELGDSALYFCASSLGLGTGDYGYTFGSGTRLTVVE

This note sets out measurements from US20190321478A1 (IMMATICS BIOTECHNOLOGIES, published 2019).

The target of this assay is HLA-A*02-presented MAGEA1-003 (on target cells) (human). Kind of assay: cell-based or functional assay.
In the case of B1, the “EC50 of IFNγ release, T2 cells loaded with titrated MAGEA1-003 peptide” value (from here on “EC50 of IFNγ release, T2 cells loaded”) turned out to be 100 nM.

Turning to B2, the “EC50 of IFNγ release, T2 cells loaded” value is 26 nM.

As for B3, the “EC50 of IFNγ release, T2 cells loaded” value was 823 nM.

For B4, the “EC50 of IFNγ release, T2 cells loaded” value is 6 nM.

As to B5, the “EC50 of IFNγ release, T2 cells loaded” value stood at 386 nM.
